Experimental data reported in patent US20250277059A1, “ANTIBODY USED TO TREAT CORONAVIRUS INFECTION” (priority 2022, published 2025).

How the values were obtained:
[1] = biological target: T1, Human TMPRSS2 expressed on cells (human, UniProt O15393 1-492)
T1 construct: also called TMPRSS2 expressing cells; Daudi-TMPRSS2 transfectant

human TMPRSS2 = human TMPRSS2 (Homo sapiens, UniProt O15393); assay: BIACore binding assay of anti-TMPRSS2 antibodies; settings: Table 8, recombinant and humanized antibodies
[2] = biological target: T2, Human TMPRSS2 recombinant protein, extracellular region (N-terminal His tag, C-terminal Strep-tag II) (human, UniProt O15393 106-492); assay: SPR (BIACore)
T2 construct: also called Human TMPRSS2 recombinant proteins; extracellular region of human TMPRSS2
T2 sequence (O15393 other isoform, or with tags, fused parts or gaps limits assumed): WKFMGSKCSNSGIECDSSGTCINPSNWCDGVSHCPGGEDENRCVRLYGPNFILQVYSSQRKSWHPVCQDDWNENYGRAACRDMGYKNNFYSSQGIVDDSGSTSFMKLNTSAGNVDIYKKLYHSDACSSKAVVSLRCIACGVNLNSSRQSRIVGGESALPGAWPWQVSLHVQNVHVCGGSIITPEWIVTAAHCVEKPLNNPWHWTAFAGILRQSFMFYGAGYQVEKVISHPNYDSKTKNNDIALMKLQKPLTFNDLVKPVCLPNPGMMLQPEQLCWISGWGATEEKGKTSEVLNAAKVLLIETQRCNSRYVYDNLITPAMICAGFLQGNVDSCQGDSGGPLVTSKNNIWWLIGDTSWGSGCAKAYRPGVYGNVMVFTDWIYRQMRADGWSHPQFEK

Chain of human TMPRSS2 (O15393 106-492 limits assumed): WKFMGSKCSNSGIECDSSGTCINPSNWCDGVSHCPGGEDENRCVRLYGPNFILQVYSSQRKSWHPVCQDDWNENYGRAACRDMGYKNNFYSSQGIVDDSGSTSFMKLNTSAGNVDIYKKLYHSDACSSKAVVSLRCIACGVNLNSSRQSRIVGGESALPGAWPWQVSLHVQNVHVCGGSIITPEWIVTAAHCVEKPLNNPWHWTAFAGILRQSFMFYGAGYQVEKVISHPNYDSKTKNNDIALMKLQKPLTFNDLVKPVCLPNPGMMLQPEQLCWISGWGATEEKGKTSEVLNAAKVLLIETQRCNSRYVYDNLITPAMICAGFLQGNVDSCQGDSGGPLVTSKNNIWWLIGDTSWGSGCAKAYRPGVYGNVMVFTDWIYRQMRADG
T1 sequence (O15393 whole entry): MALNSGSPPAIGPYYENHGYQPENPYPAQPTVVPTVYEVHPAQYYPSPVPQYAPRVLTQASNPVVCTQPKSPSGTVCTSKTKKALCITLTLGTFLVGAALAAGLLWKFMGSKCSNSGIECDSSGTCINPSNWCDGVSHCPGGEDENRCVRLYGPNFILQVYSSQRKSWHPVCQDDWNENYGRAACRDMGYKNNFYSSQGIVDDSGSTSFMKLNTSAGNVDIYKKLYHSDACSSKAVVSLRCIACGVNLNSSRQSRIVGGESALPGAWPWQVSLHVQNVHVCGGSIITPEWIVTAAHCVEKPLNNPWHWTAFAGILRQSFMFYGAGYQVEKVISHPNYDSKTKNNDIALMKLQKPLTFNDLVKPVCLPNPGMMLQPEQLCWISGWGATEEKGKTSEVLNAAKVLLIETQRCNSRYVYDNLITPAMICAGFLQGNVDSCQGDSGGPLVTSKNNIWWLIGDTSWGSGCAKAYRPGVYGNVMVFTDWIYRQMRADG

| Molecule | APC median at 3 µg/ml [1] | ka (human TMPRSS2) [M⁻¹ s⁻¹] | kd (human TMPRSS2) [s⁻¹] | other results |
| --- | --- | --- | --- | --- |
| 752_1 human IgG4 chimeric antibody (antibody, V domains shown) VH: QVQLQQSGAELARPGASVKLSCKASGYTFTSCGISWVKQRTGQGLEWIGEIYPRGGNTYYNEKFKGKATLTADKSSSTAYMELRSLTSEDSAVYFCARENGNYDPLFAYWGQGTLVTVSA VL: DIQMTQSPSSLSASLGGKVTITCKASQDINKYIAWYQHKPGKGPRLLIHYTSTLQPGIPSRFSGSGSGRDYSFSIYNLEPEDIATYYCLQYYNLWTFGGGTKLEIK | 2040 | – | – | – |
| humanized 752-1 IgG4 (S108P) prototype #3: humanized 752 antibody, 752_hVH-2 (SEQ ID NO: 129) and 752_hVL-1 (SEQ ID NO: 114), human IgG4 (S108P) (antibody, V domains shown, human IgG4 S108P constant region) VH: QVQLQQSGTGLARPGASVKLSCKASGYTFTSCGISWVTQRAGQGLEWIGEIYPRGGNTYYNEKFKGKATLTADKSSSSAYMELRGLTAEDSAVYFCARENGNYDPLFAYWGQGTTLTVSS VL: DIQMTQSPSSLSASVGDRVTITCKASQDINKYIAWYQQKPGKAPKLLIYYTSTLQPGVPSRFSGSGSGTDFTFTISSLQPEDIATYYCLQYYNLWTFGGGTKVEIK | – | 2.22e+06 | 0.004691 | – |
| humanized 752-1 IgG4 (S108P) prototype #4: humanized 752 antibody, 752_hVH-2 (SEQ ID NO: 129) and 752_hVL-2 (SEQ ID NO: 119), human IgG4 (S108P) (antibody, V domains shown) VH: QVQLQQSGTGLARPGASVKLSCKASGYTFTSCGISWVTQRAGQGLEWIGEIYPRGGNTYYNEKFKGKATLTADKSSSSAYMELRGLTAEDSAVYFCARENGNYDPLFAYWGQGTTLTVSS VL: DIQMTQSPSSLSASVGDRVTITCKASQDINKYIAWYQQKPGKAPKLLIHYTSTLQPGVPSRFSGSGSGTDFTFTISSLQPEDIATYYCLQYYNLWTFGGGTKVEIK | – | 2.5e+06 | 0.006114 | – |
| humanized 752-1 IgG4 (S108P) prototype #1 (antibody, V domains shown, also called humanized #1; hu #1) VH: QVQLVQSGAEVKKPGASVKVSCKASGYTFTSCGISWVRQAPGQGLEWMGEIYPRGGNTYYNEKFKGRVTMTTDTSTSTAYMELRSLRSDDTAVYYCARENGNYDPLFAYWGQGTLVTVSS VL: DIQMTQSPSSLSASVGDRVTITCKASQDINKYIAWYQQKPGKAPKLLIYYTSTLQPGVPSRFSGSGSGTDFTFTISSLQPEDIATYYCLQYYNLWTFGGGTKVEIK | 1450 | – | – | Kd [2]: 22.6 nM; koff [2]: 0.00932 s⁻¹; kon [2]: 412000 M⁻¹ s⁻¹ |
| humanized 752-1 IgG4 (S108P) prototype #2: humanized 752 antibody, 752_hVH-1 (SEQ ID NO: 124) and 752_hVL-2 (SEQ ID NO: 119), human IgG4 (S108P) (antibody, V domains shown, human IgG4 S108P constant region) VH: QVQLVQSGAEVKKPGASVKVSCKASGYTFTSCGISWVRQAPGQGLEWMGEIYPRGGNTYYNEKFKGRVTMTTDTSTSTAYMELRSLRSDDTAVYYCARENGNYDPLFAYWGQGTLVTVSS VL: DIQMTQSPSSLSASVGDRVTITCKASQDINKYIAWYQQKPGKAPKLLIHYTSTLQPGVPSRFSGSGSGTDFTFTISSLQPEDIATYYCLQYYNLWTFGGGTKVEIK | – | 1.13e+06 | 0.01521 | – |
| humanized 752-1 IgG4 (S108P) prototype #1: humanized 752 antibody, 752_hVH-1 (SEQ ID NO: 124) and 752_hVL-1 (SEQ ID NO: 114), human IgG4 (S108P) (antibody, V domains shown, human IgG4 S108P constant region) VH: QVQLVQSGAEVKKPGASVKVSCKASGYTFTSCGISWVRQAPGQGLEWMGEIYPRGGNTYYNEKFKGRVTMTTDTSTSTAYMELRSLRSDDTAVYYCARENGNYDPLFAYWGQGTLVTVSS VL: DIQMTQSPSSLSASVGDRVTITCKASQDINKYIAWYQQKPGKAPKLLIYYTSTLQPGVPSRFSGSGSGTDFTFTISSLQPEDIATYYCLQYYNLWTFGGGTKVEIK | – | 412000 | 0.009321 | – |
| humanized 752-1 IgG4 (S108P) prototype #2 (antibody, V domains shown, also called humanized #2; hu #2) VH: QVQLVQSGAEVKKPGASVKVSCKASGYTFTSCGISWVRQAPGQGLEWMGEIYPRGGNTYYNEKFKGRVTMTTDTSTSTAYMELRSLRSDDTAVYYCARENGNYDPLFAYWGQGTLVTVSS VL: DIQMTQSPSSLSASVGDRVTITCKASQDINKYIAWYQQKPGKAPKLLIHYTSTLQPGVPSRFSGSGSGTDFTFTISSLQPEDIATYYCLQYYNLWTFGGGTKVEIK | 1410 | – | – | Kd [2]: 13.4 nM; koff [2]: 0.0152 s⁻¹; kon [2]: 1.13e+06 M⁻¹ s⁻¹ |
| humanized 2228-15 IgG4 (S108P) prototype #3: humanized 2228 antibody, 2228_hVH-2 (SEQ ID NO: 149) and 2228_hVL-1 (SEQ ID NO: 134), human IgG4 (S108P) (antibody, V domains shown, human IgG4 S108P constant region) VH: EIQLVQSGAEVKKPGSSVKVSCKASGYTFTDYYINWMRQAPGQGLEWIGWIFPGSGSSYYNAIFKGRATLTVDTSTNTAYMELSSLRSEDTAFYFCARGDFGNFGGFFTYWGQGTLVTVSS VL: DVVMTQSPLSLPVTLGQPASISCRASKSVSTSGYSFMHWFQQRPGQSPRRLIYLASNLESGVPDRFSGSGSGTDFTLKISRVEAEDVGVYYCQHSRELPLTFGGGTKVEIK | – | 825000 | 0.000774 | – |
| humanized 2228-15 IgG4 (S108P) prototype #2 (antibody, V domains shown, also called hu #2) VH: QVQLVQSGAEVKKPGASVKVSCKASGYTFTDYYINWVRQAPGQGLEWMGWIFPGSGSSYYNAIFKGRVTMTRDTSISTAYMELSRLRSDDTAVYYCARGDFGNFGGFFTYWGQGTLVTVSS VL: DIVMTQSPDSLAVSLGERATINCRASKSVSTSGYSFMHWYQQKPGQPPKLLIYLASNLESGVPDRFSGSGSGTDFTLTIRPLQAEDVAVYYCQHSRELPLTFGQGTKLEIK | 2540 | – | – | – |
| humanized 2228-15 IgG4 (S108P) prototype #4: humanized 2228 antibody, 2228_hVH-2 (SEQ ID NO: 149) and 2228_hVL-2 (SEQ ID NO: 139), human IgG4 (S108P) (antibody, V domains shown, human IgG4 S108P constant region) VH: EIQLVQSGAEVKKPGSSVKVSCKASGYTFTDYYINWMRQAPGQGLEWIGWIFPGSGSSYYNAIFKGRATLTVDTSTNTAYMELSSLRSEDTAFYFCARGDFGNFGGFFTYWGQGTLVTVSS VL: DIVMTQSPDSLAVSLGERATINCRASKSVSTSGYSFMHWYQQKPGQPPKLLIYLASNLESGVPDRFSGSGSGTDFTLTIRPLQAEDVAVYYCQHSRELPLTFGQGTKLEIK | – | 1.44e+06 | 0.0001 | – |
| humanized 2228-15 IgG4 (S108P) prototype #2: humanized 2228 antibody, 2228_hVH-1 (SEQ ID NO: 144) and 2228_hVL-2 (SEQ ID NO: 139), human IgG4 (S108P) (antibody, V domains shown, human IgG4 S108P constant region) VH: QVQLVQSGAEVKKPGASVKVSCKASGYTFTDYYINWVRQAPGQGLEWMGWIFPGSGSSYYNAIFKGRVTMTRDTSISTAYMELSRLRSDDTAVYYCARGDFGNFGGFFTYWGQGTLVTVSS VL: DIVMTQSPDSLAVSLGERATINCRASKSVSTSGYSFMHWYQQKPGQPPKLLIYLASNLESGVPDRFSGSGSGTDFTLTIRPLQAEDVAVYYCQHSRELPLTFGQGTKLEIK | – | 731000 | 0.001039 | – |
| humanized 2228-15 IgG4 (S108P) prototype #1: humanized 2228 antibody, 2228_hVH-1 (SEQ ID NO: 144) and 2228_hVL-1 (SEQ ID NO: 134), human IgG4 (S108P) (antibody, V domains shown, human IgG4 S108P constant region) VH: QVQLVQSGAEVKKPGASVKVSCKASGYTFTDYYINWVRQAPGQGLEWMGWIFPGSGSSYYNAIFKGRVTMTRDTSISTAYMELSRLRSDDTAVYYCARGDFGNFGGFFTYWGQGTLVTVSS VL: DVVMTQSPLSLPVTLGQPASISCRASKSVSTSGYSFMHWFQQRPGQSPRRLIYLASNLESGVPDRFSGSGSGTDFTLKISRVEAEDVGVYYCQHSRELPLTFGGGTKVEIK | – | 5.22e+06 | 0.0641 | – |
| 2228_15 human IgG4 chimeric antibody (antibody, V domains shown) VH: QVQLQQSGPELVKPGTSVKISCKASGYTFTDYYINWVKQRPGQGLEWIGWIFPGSGSSYYNAIFKGKATLTVDTSSNTAHMSLSSLTSDDSAVYFCARGDFGNFGGFFTYWGQGTLVTVSA VL: DVVVTQSPASLAVSLGQRATISCRASKSVSTSGYSFMHWYQQKPGQPPKLLIYLASNLESGVPARFSGSGSGTDFILNIHPVEEEDAATYYCQHSRELPLTFGAGTKLELK | 2370 | – | – | – |
| recombinant 2228-15 mIgG (antibody, V domains shown) VH: QVQLQQSGPELVKPGTSVKISCKASGYTFTDYYINWVKQRPGQGLEWIGWIFPGSGSSYYNAIFKGKATLTVDTSSNTAHMSLSSLTSDDSAVYFCARGDFGNFGGFFTYWGQGTLVTVSA VL: DVVVTQSPASLAVSLGQRATISCRASKSVSTSGYSFMHWYQQKPGQPPKLLIYLASNLESGVPARFSGSGSGTDFILNIHPVEEEDAATYYCQHSRELPLTFGAGTKLELK | – | – | – | Kd [2]: 3.72 nM |
